Key:
NW231 cells = experiment: NW231 orthotopic xenograft in SCID mice; format: in vivo; conditions: 10 mg/kg intraperitoneally, 3 times/week for 3 weeks
Description: (§1) NW231 and LOX cells were grown as orthotopic xenografts in SCID mice and challenged with the anti-α5β1 antibodies M200 and IIA1 by intraperitoneal injection.
(§2) Immune compromised mice CB-17 SCID (strain C.B-Igh1/IcrTac-Prkdc) were obtained from Taconic Farms (Germantown, N.Y.). Studies were initiated using female mice between the ages of 6-10 weeks (˜20 grams in weight). Animals were pre-dosed with M200, IIA1 or control IgG intraperitoneally at a dose of 10 mg/kg 1 hour prior to NW231 inoculation (1×10^7 cells in IMDM) into the mammary fat pad. Dosing continued for 3 weeks at a frequency of 3 times/week at 10 mg/kg. Tumor volume was measured twice weekly by caliper and calculated by π/6×length×width×height. Clinical and mortality observations were performed daily according to IACUC regulations.

LOX cells = experiment: LOX orthotopic xenograft in SCID mice; format: in vivo; conditions: 10 mg/kg intraperitoneally, 3 times/week for 3 weeks
Description: as §1, §2

mouse α5β1 integrin = mouse α5β1 integrin (Mus musculus, UniProt P09055+P11688); experiment: species cross-reactivity of anti-α5β1 antibody; format: binding
Sequence of mouse α5β1 integrin (P11688 45-1053): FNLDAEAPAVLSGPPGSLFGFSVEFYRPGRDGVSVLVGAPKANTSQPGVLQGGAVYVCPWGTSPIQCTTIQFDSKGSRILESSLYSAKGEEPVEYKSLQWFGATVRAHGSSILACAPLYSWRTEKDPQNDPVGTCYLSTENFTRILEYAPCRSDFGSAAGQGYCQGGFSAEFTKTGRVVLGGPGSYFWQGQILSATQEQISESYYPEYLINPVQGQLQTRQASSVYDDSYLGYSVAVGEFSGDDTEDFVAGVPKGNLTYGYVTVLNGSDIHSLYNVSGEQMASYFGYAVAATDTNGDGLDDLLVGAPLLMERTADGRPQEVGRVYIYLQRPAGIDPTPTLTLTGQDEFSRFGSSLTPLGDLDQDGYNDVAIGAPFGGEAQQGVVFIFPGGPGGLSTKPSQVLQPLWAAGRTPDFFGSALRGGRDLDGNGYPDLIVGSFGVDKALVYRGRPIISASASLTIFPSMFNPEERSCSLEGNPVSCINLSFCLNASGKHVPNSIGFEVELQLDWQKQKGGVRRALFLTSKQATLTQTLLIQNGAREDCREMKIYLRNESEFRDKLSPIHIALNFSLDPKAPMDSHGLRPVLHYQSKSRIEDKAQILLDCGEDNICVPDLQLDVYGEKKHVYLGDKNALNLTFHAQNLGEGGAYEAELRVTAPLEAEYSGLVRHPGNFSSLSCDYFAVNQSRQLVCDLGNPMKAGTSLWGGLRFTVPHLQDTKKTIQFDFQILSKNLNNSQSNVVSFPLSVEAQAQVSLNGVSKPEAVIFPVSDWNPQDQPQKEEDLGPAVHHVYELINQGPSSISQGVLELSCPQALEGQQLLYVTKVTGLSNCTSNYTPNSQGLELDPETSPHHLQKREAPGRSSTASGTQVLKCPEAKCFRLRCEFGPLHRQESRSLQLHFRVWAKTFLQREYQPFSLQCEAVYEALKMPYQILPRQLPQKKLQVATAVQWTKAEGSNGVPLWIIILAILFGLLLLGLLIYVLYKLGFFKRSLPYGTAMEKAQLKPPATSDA
Sequence of mouse α5β1 integrin (P09055 21-798): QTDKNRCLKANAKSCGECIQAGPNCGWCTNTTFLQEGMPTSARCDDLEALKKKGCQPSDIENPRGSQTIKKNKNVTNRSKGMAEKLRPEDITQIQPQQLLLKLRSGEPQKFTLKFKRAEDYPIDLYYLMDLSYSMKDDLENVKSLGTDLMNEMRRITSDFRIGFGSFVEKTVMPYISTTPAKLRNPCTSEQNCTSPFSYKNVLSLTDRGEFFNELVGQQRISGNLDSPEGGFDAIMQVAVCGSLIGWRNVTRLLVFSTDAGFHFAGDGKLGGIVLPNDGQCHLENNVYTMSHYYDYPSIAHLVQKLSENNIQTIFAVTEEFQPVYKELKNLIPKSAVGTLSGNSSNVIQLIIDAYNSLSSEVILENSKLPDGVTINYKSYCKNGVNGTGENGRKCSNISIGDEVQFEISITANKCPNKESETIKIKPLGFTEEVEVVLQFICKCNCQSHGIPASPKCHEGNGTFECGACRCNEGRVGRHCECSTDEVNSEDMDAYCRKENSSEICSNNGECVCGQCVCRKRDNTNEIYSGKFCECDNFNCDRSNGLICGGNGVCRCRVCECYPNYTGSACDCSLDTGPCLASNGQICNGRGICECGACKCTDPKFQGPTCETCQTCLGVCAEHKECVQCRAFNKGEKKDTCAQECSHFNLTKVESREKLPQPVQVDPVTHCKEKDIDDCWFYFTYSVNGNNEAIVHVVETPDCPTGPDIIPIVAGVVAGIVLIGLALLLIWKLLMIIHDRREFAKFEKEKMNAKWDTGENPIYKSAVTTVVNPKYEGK

VX2 cancer cells = experiment: SCID mouse VX2 xenograft model; format: in vivo; conditions: SCID mice; 10 mg/kg intraperitoneally, 3 times/week for 3 weeks
Description: as §2, with “M200, IIA1,” for “M200, IIA1”, “mg/kg one” for “mg/kg 1”, “to VX2” for “to NW231”, “in Iscove's Modified Dulbecco's Medium)” for “in IMDM)”, “Dosing was” for “Dosing”

786-0 = experiment: M200 in vitro cell proliferation assay; format: cell-based; conditions: 786-0 (renal), 4-day assay
Description: (§3) Cancer cell lines were plated at a density of 2500 cells/well in 96-well plates in IMDM with supplements in the presence or absence of 10% FBS. At the time of plating, cells were challenged with various concentrations M200 or a non-function blocking anti-α5 antibody, VC5. Four days later, cell viability was assessed by the CellTiter 96 AQueous Non-Radioactive Cell Proliferation Assay (Promega) according to the manufacturer's instructions. All growth studies were done at least 3 times in triplicate.

A375 = experiment: M200 in vitro cell proliferation assay; format: cell-based; conditions: A375 (melanoma), 4-day assay
Description: as §3

A498 = experiment: M200 in vitro cell proliferation assay; format: cell-based; conditions: A498 (renal), 4-day assay
Description: as §3

C32 = experiment: M200 in vitro cell proliferation assay; format: cell-based; conditions: C32 (melanoma), 4-day assay
Description: as §3

C8161 = experiment: M200 in vitro cell proliferation assay; format: cell-based; conditions: C8161 (melanoma), 4-day assay
Description: as §3

CAPAN-1 = experiment: M200 in vitro cell proliferation assay; format: cell-based; conditions: CAPAN-1 (pancreas), 4-day assay
Description: as §3

CAPAN-2 = experiment: M200 in vitro cell proliferation assay; format: cell-based; conditions: CAPAN-2 (pancreas), 4-day assay
Description: as §3

CHL-1 = experiment: M200 in vitro cell proliferation assay; format: cell-based; conditions: CHL-1 (melanoma), 4-day assay
Description: as §3

COLO 357 = experiment: M200 in vitro cell proliferation assay; format: cell-based; conditions: COLO 357 (pancreas), 4-day assay
Description: as §3

DU145 = experiment: M200 in vitro cell proliferation assay; format: cell-based; conditions: DU145 (prostate), 4-day assay
Description: as §3

ES-2 = experiment: M200 in vitro cell proliferation assay; format: cell-based; conditions: ES-2 (ovarian), 4-day assay
Description: as §3

H460 = experiment: M200 in vitro cell proliferation assay; format: cell-based; conditions: H460 (lung), 4-day assay
Description: as §3

HT1080 = experiment: M200 in vitro cell proliferation assay; format: cell-based; conditions: HT1080 (fibrosarcoma), 4-day assay
Description: as §3

HT144 = experiment: M200 in vitro cell proliferation assay; format: cell-based; conditions: HT144 (melanoma), 4-day assay
Description: as §3

SW1990 = experiment: M200 in vitro cell proliferation assay; format: cell-based; conditions: 4-day assay
Description: as §3

SW839 = experiment: M200 in vitro cell proliferation assay; format: cell-based; conditions: SW839 (renal), 4-day assay
Description: as §3

[1] = Phase I dose-escalation study: immunogenicity (double-antigen bridging ELISA); format: in vivo, human
Description: Immunogenicity of M200 was determined by a double-antigen bridging ELISA assay. Serum samples for anti-M200 antibodies were obtained from patients before treatment, prior to the second dose, and at study exit, 45 days after the last dose of M200. In addition, serum for anti-M200 antibodies was drawn if the interval between doses was […]. Samples were stored and evaluated at the end of the study. Samples that tested positive for antibodies to M200 were re-assayed for neutralizing antibodies to M200. Patients with known exposure to murine or chimeric monoclonal antibodies were screened for the presence of anti-M200 antibodies prior to receiving the first dose of M200.

angiogenesis = conditions: monkey eye model; cited from earlier work
[2] = Phase I dose-escalation study: pharmacokinetics (serum ELISA)
Description: The serum for measuring M200 concentrations was obtained immediately before and after the first dose, and at 4, 24, 48, and 168 hours after completion of the first dose. Serum samples for measuring M200 concentrations were also taken immediately before, at the end, and 4 hours after the completion of each subsequent infusion. These samples were split and aliquots assayed before the next dose and again at the end of the study: end of 1st dose, 168 hours after 1st dose, immediately pre-dose (trough) and immediately post-dose (peak) for the 2nd, 3rd, 4th and 5th doses. The serum levels of M200 were measured by ELISA.
The plasma concentration-time data of M200 from each patient was subjected to a PK analysis. The following parameters were included in the calculations: peak (Cmax) and trough (Cmin) levels, terminal phase half-life (T1/2 β), area under the plasma-concentration time curve (AUC), elimination clearance (CL), and volume of distribution (V). Summary parameters were computed across patients from each treatment group. Changes in the PK parameters as a function of dose and time were also evaluated.

B1: IIA1: parent mouse IgG1 class anti-α5β1 antibody shown to inhibit α5β1 integrin binding to fibronectin (antibody, V domains shown)
VH: MAVLGLLLCLVTFPSCVLSQVQLKESGPGLVAPSQSLSITCTISGFSLTDYGVHWVRQPPGKGLEWLVVIWSDGSSTYNSALKSRMTIRKDNSKSQVFLIMNSLQTDDSAMYYCARHGTYYGMTTTGDALDYWGQGTSVTVSS
VL: MDFQVQIFSFLLISASVIMSRGQIVLTQSPAIMSASLGERVTMTCTASSSVSSNYLHWYQQKPGSAPNLWIYSTSNLASGVPARFSGSGSGTSYSLTISSMEAEDAATYYCHQYLRSPPTFGGGTKLEIK
modifications: mus muscalus
NW231 xenograft tumor growth (NW231 cells): reproducibly inhibit | LOX xenograft tumor growth (LOX cells): reproducibly inhibit | recognition of mouse α5β1 integrin (mouse α5β1 integrin): does not recognize | VX2 xenograft tumor growth versus control IgG (VX2 cancer cells): did not correlate with a decreased rate of VX2 tumor growth

B2: M200: chimeric IgG4 anti-α5β1 antibody derived from IIA1; generic name volociximab (antibody, V domains shown)
VH: B1 VH
VL: MDFQVQIFSFLLISASVIMSRGQIVLTQSPAIMSASLGERVTMTCTASSSVSSNYLHWYQQKPGSAPNLWIYSTSNLASGVPARFSGSGSGTSYSLTISSMEAEDAATYYCHQYLRSPPTFGGGTKLEIKDMSVDMSV
modifications: chimeric antibody
notes: chimeric IgG4 anti-α5β1 antibody derived from IIA1; generic name volociximab
% Growth Inhibition +Serum (786-0; 10% FBS): 0% | % Growth Inhibition −Serum (786-0; absence of serum): 10% | % Growth Inhibition +Serum (A375; 10% FBS): 0% | % Growth Inhibition −Serum (A375; absence of serum): 5% | % Growth Inhibition +Serum (A498; 10% FBS): 0% | % Growth Inhibition −Serum (A498; absence of serum): 5% | % Growth Inhibition +Serum (C32; 10% FBS): 0% | % Growth Inhibition −Serum (C32; absence of serum): 0% | % Growth Inhibition +Serum (C8161; 10% FBS): 0% | % Growth Inhibition −Serum (C8161; absence of serum): 0% | % Growth Inhibition +Serum (CAPAN-1; 10% FBS): 0% | % Growth Inhibition −Serum (CAPAN-1; absence of serum): 0% | % Growth Inhibition +Serum (CAPAN-2; 10% FBS): 0% | % Growth Inhibition −Serum (CAPAN-2; absence of serum): 0% | % Growth Inhibition +Serum (CHL-1; 10% FBS): 0% | % Growth Inhibition −Serum (CHL-1; absence of serum): 0% | % Growth Inhibition +Serum (COLO 357; 10% FBS): 0% | % Growth Inhibition −Serum (COLO 357; absence of serum): 0% | % Growth Inhibition +Serum (DU145; 10% FBS): 0% | % Growth Inhibition −Serum (DU145; absence of serum): 0% | % Growth Inhibition +Serum (ES-2; 10% FBS): 0% | % Growth Inhibition −Serum (ES-2; absence of serum): 0% | % Growth Inhibition +Serum (H460; 10% FBS): 0% | % Growth Inhibition −Serum (H460; absence of serum): 40% | % Growth Inhibition +Serum (HT1080; 10% FBS): 0% | % Growth Inhibition −Serum (HT1080; absence of serum): 0% | % Growth Inhibition +Serum (HT144; 10% FBS): 0% | % Growth Inhibition −Serum (HT144; absence of serum): 0% | % Growth Inhibition +Serum (SW1990; 10% FBS): 0% | % Growth Inhibition −Serum (SW1990; absence of serum): 10% | % Growth Inhibition +Serum (SW839; 10% FBS): 0% | % Growth Inhibition −Serum (SW839; absence of serum): 30% | NW231 xenograft tumor growth (NW231 cells): not found to reproducibly inhibit tumor growth | LOX xenograft tumor growth (LOX cells): not found to reproducibly inhibit tumor growth | recognition of mouse α5β1 integrin (mouse α5β1 integrin): does not cross react | VX2 xenograft tumor growth versus control IgG (VX2 cancer cells): did not correlate with a decreased rate of VX2 tumor growth | patients tested positive for anti-M200 antibodies ([1]; 0.5 mg/kg and 1.0 mg/kg dose levels): Three | patients tested positive for anti-M200 ([1]; higher dose cohorts): No patients | in vivo anti-angiogenic efficacy (angiogenesis): in vivo anti-angiogenic efficacy | mean trough level ([2]; 10 mg/kg, two weeks after the 1st dose): 82 µg/mL | pharmacokinetics, linearity ([2]; slower clearance at the higher concentrations): non-linear pharmacokinetics
